Experiments:
MxiH (Shigella flexneri) = MxiH (Shigella flexneri) (UniProt P0A223); assay: avidin labelling with negative-stain EM; needle complexes with biotinylated Avitag proteins held on Ni-NTA beads by His6-MxiG, avidin in 300 to 500 molar excess overnight at 4°C, washed, eluted, negative stain; avidin counted on the needle tips
[1] = molecular target: IpaD_avitag (Shigella flexneri) (UniProt P18013); assay: as above
IpaD (Shigella flexneri) [2] = molecular target: IpaD (Shigella flexneri) (UniProt P18013); assay: negative-stain EM three-dimensional reconstruction; tip complex and needle of purified needle complexes from the wild-type strain; the half of the images with the lower cross-correlation to the ΔipaB map, 24 Å; complex assembled on the bacteria
IpaD (Shigella flexneri) [3] = molecular target: IpaD (Shigella flexneri) (UniProt P18013); assay: negative-stain EM three-dimensional reconstruction; tip complex and needle of purified needle complexes from the ΔipaB strain; single particle and helical image analysis, 25 Å; complex assembled on the bacteria
IpaB (Shigella flexneri) = assay: avidin labelling with negative-stain EM; needle complexes with biotinylated Avitag proteins held on Ni-NTA beads by His6-MxiG, avidin in 300 to 500 molar excess overnight at 4°C, washed, eluted, negative stain; avidin counted on the needle tips
IpaD (Shigella flexneri) [4] = molecular target: IpaD (Shigella flexneri) (UniProt P18013); assay: negative-stain EM three-dimensional reconstruction; tip complex and needle of needle complexes purified on Ni-NTA by His6-MxiG from mxiH mutant strains (Q51A, P44A, P44A+Q51A), 21-24 Å; Q51A map refined to 19 Å; complex assembled on the bacteria
[5] = molecular target: the molecule itself; assay: cross-linking; bacteria of otherwise wild-type background treated with 30 uM BM(PEG)2, quenched; crudely purified needle complexes, Western blot with anti-IpaD and anti-IpaB; no bands with the oxidiser; pattern unchanged on addition of Congo red

MxiH (Shigella flexneri), sequence (P0A223 whole entry): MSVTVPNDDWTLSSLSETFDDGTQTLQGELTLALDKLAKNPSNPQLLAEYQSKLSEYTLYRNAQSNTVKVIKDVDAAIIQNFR

“IpaD_avitag (from UniProt P18013 1-332) (natural protein)” was tested, and the percent of needle tips labelled with at least one avidin (MxiH (Shigella flexneri)) was 25% and the stoichiometry N [1] was 4.

In the case of “IpaD (from UniProt P18013 1-332) (natural protein)”, the stoichiometry N (IpaD (Shigella flexneri) [2]) is reported as 4, the stoichiometry N (IpaD (Shigella flexneri) [3]) is reported as 5 and the stoichiometry N (IpaB (Shigella flexneri)) is reported as 4. For the same molecule, the stoichiometry N (IpaD (Shigella flexneri) [4]) was 4.

Work on IpaB_avitag (natural protein) yielded a percent of needle tips labelled with at least one avidin (MxiH (Shigella flexneri)) of 2.5%.

B1: IpaD C322S/S173C/K258C (natural protein)
chain: MNITTLTNSISTSSFSPNNTNGSSTETVNSDIKTTTSSHPVSSLTMLNDTLHNIRTTNQALKKELSQKTLTKTSLEEIALHSSQISMDVNKSAQLLDILSRNEYPINKDARELLHSAPKEAELDGDQMISHRELWAKIANSINDINEQYLKVYEHAVSSYTQMYQDFSAVLSCLAGWISPGGNDGNSVKLQVNSLKKALEELKEKYKDKPLYPANNTVSQEQANKWLTELGGTIGKVSQKNGGYVVSINMTPIDNMLCSLDNLGGNGEVVLDNAKYQAWNAGFSAEDETMKNNLQTLVQKYSNANSIFDNLVKVLSSTISSSTDTDKLFLHF
notes: IpaD, Shigella flexneri, with the intrinsic cysteine 322 changed to serine and two cysteines put in (helix α3 and helix α6); also called ipaDS173C/K258C; source: S. flexneri ΔipaD, ΔipaB ΔipaD or ΔmxiH ΔipaD background, from pUC18 ipaD_(C322S); on needle tips, in sheared needles or crudely purified needle complexes
B1 was tested, and the “stoichiometry N” value [5] was 5.

Source: publication PMC4539596, “Three-dimensional electron microscopy reconstruction and cysteine-mediated crosslinking provide a model of the type III secretion system needle tip complex” (Molecular Microbiology, 2014)
